Reference: patent US20220411495A1, “POSITIVE ALLOSTERIC MODULATORS OF THE CALCIUM-SENSING RECEPTOR” (VIB VZW, priority 2019, published 2022)
Positions count from the first letter of the chain named.

T1: rat CaSR (rCaSR) (Rattus norvegicus, UniProt P48442)
T1 construct: mGlu5 signal peptide (N); expressed in transfected cells; host or cells: HEK293A, transient transfection
T1 sequence (P48442 20-1079): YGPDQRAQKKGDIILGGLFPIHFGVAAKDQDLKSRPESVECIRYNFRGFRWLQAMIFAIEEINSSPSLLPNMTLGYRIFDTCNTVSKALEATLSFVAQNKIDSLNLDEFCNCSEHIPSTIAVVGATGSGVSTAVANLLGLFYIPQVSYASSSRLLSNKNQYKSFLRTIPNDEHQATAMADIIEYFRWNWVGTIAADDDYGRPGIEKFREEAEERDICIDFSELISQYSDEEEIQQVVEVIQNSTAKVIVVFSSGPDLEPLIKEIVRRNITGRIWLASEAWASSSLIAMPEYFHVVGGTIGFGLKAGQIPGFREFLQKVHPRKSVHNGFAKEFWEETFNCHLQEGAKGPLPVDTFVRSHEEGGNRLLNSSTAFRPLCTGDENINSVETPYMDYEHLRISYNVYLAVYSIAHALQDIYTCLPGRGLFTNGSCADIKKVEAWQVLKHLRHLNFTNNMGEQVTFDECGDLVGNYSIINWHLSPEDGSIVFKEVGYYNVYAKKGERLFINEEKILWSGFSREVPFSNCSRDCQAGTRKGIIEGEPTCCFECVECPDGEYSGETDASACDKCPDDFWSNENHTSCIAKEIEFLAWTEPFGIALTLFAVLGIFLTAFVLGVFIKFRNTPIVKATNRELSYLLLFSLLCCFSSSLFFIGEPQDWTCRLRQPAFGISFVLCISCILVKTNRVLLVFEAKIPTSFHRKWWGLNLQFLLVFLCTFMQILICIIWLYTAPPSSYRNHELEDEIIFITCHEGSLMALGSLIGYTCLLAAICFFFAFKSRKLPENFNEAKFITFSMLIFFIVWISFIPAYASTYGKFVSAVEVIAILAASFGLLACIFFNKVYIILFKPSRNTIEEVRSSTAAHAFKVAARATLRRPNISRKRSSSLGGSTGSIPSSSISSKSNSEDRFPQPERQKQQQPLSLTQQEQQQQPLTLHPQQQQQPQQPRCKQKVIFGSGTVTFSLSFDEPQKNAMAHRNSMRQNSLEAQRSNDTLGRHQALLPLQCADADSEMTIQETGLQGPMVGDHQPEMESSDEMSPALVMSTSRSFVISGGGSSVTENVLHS

B1: Nb4: llama-derived CaSR-specific nanobody acting as PAM, SEQ ID NO:5 (protein)
VHH: QVQLVESGGGLVQAGGSLRLSCAASGRTFSTYRMGWFRQGLGKEREFVAAITANGVRTFYTDSVKGRFTISRDNAKNTLYLQMNSLQPDDTAVYLCAARRKGIFTVQQAQDITDWDYWGQGTQVTVSS
modifications: CaSR Nb4
B2: Nb2: llama-derived CaSR-specific nanobody acting as PAM, SEQ ID NO:9 (protein)
VHH: QVQLVESGGGLVQAGSSLRLSCAASGRTFSNYRMAWFRQAPGKEREFVAVISRGGGGADYADSVKGRFTISRDNVKNTVSLQMNSLKPEDTAVYFCAARISGFSYYTSVDRYDYWGQGTQVTVSS
modifications: CaSR Nb2
B3: Nb5: llama-derived CaSR-specific nanobody, weakest PAM, SEQ ID NO:8 (protein)
VHH: QVQLVESGGRLVQDGGSLRLSCAASGLTFSDYSMGWFRQVPGKEREFVAVIRRSNDSTYYADFVKGRFTISRDNAKNTVYLQMNSLQPEDTAVYSCAADRGGVGLTSAQTYAYWGQGTQVTVSS
modifications: CaSR Nb5
B4: Nb10: llama-derived CaSR-specific nanobody acting as PAM, SEQ ID NO:3 (protein)
VHH: QVQLVESGGGLVQPGDSLRVSCAASGGSFRSYAMAWFRQAPGKEREFVAAMSGTYGSTIYSDSMKGRFTISRDNAKKMVYLRMNSLRPEDTAVYYCAGYYSGAYYGTPKTDYTEYDSWGQGTQVTVSS
modifications: CaSR Nb10
B5: Nb11: llama-derived CaSR-specific nanobody acting as PAM, SEQ ID NO:6 (protein)
VHH: QVQLVESGGGLVQAGGSLRLSCAASGRTFSTYRMGWFRQGPGKEREFVAAITATGVKTYYTDSVKGRFTISRDNAKNTVYLQMNSVQPEDTAVYSCAARIKAIFTAQQAATITDYDYWGQGTQVTVSS
modifications: CaSR Nb11
B6: Nb15: llama-derived CaSR-specific nanobody acting as PAM, SEQ ID NO:10 (protein)
VHH: QVQLVESGGGLVQAGGSLRLSCAASGRTFNNYHMAWFRQAPGKEREFAAAISRRAGTTYYADSVKGRFTISRDNAKNTVYLQMNSLKPEDTAVYYCAADPDTYGVSYLARKYDYWGQGTQVTVSS
modifications: CaSR Nb15
B7: Nb36: llama-derived CaSR-specific nanobody acting as PAM, SEQ ID NO:7 (protein)
VHH: QVQLVESGGGLVQAGESLRLSCAASGRTFSSYRMGWFRQGPGKEREFVAAITATGVRTYYADSVKGRFTISRDNAKNTVYLQMNSLQPDDTAVYLCAARRKAIFSVQQALTITDYDDWGQGTQVTVSS
modifications: CaSR Nb36
B8: Nb37: llama-derived CaSR-specific nanobody acting as PAM, SEQ ID NO:4 (protein)
VHH: B4 VHH with Q39R, S61A, P88A
modifications: CaSR Nb37

Target: T1, rat CaSR (rCaSR)
Assay: IP1 accumulation assay, HEK293A cells transiently transfected with HA-rCaSR WT
Format: cell-based
Conditions: IP1 accumulation at EC20 Ca2+
Text: The rat and human CaSR orthologs have an overall sequence identity of 93.6% and an ECD sequence identity of 95.7% (SEQ ID NO:1 aligned with SEQ ID NO:2). Thus, differences in CaSR nanobody activity are unlikely to be observed. […] Besides CaSR Nb36, similar results were obtained among the nanobodies that originate from the same family (FIGS. 7E and 7F). For Nb36, the increase in maximum response relative to Nb4 and Nb11 previously observed with human CaSR was absent (FIGS. 7C and 7F). The binding site of these nanobodies still remains to be found. The difference in CaSR Nb36 maximum response and the high interspecies sequence identity could bring us one step closer to finding the binding site for CaSR Nb4, Nb11 and Nb36.
All cell lines utilized in this study were grown at 37° C. and 5% CO2. The HEK293A (RRID: CVCL_6910) and stable Flp-In HEK293 cells were cultured in Dulbecco's Modified Eagle Medium (DMEM, #31966021) supplemented with 10% dialyzed Fetal Bovine Serum (dFBS) and 1% 10,000 units/mL penicillin and 10,000 μg/mL streptomycin mixture (pen/strep). The stable Flp-In CHO cells were cultured in F-12K medium (#21127022) supplemented with 10% dFBS and 1% pen/strep. Additionally, the stable Flp-In HEK293 and Flp-In CHO cell lines were cultured in the presence of respectively 200 and 500 μg/mL hygromycin B. For pharmacological characterization, Flp-In HEK293 HA-hCaSR WT cells were seeded in poly-D-lysine-coated clear 96 well tissue culture plates (Corning, Corning, N.Y., USA) at a density of 50,000 cells/well 18 h prior to assay. Experiments with HA-rCaSR WT and HA-hCaSR S170A required transient transfection of HEK293A cells 24 h prior to assay. DNA construct and Lipofectamine 2000 were diluted in Opti-MEM and mixed together after 5 minutes incubation at room temperature. For HA-rCaSR WT, 30 ng/well rCaSR DNA diluted in 25 μL/well Opti-MEM was mixed with 0.25 μL/well Lipofectamine 2000 in 25 μL/well Opti-MEM. For HA-hCaSR S170A, 40 ng/well […] DNA diluted in 25 μL/well Opti-MEM was mixed with 0.25 μL/well Lipofectamine 2000 in 25 μL/well Opti-MEM. The DNA:Lipofectamine 2000 mixtures were incubated 20 minutes at room temperature after which 50 μL/well was added to a poly-D-lysine-coated clear 96 well tissue culture plate. Next, 100 μL/well of a 400,000 cells/mL HEK293A cell solution prepared in culture media was added and the plate was placed at 37° C. and 5% CO2 (final cell density 40,000 cells/well).
Inositol monophosphate (IP1) accumulation was measured using the commercially available HTRF® IP1 accumulation kit (Cisbio Bioassays, Codolet, France) and an EnVision multimode plate reader (PerkinElmer, Waltham, Mass., USA). Unless stated otherwise, the cells were washed once with 100 μL/well assay buffer and stimulated for 30 minutes at 37° C. with 50 μL/well ligand(s) diluted in assay buffer supplemented with 20 mM LiCl. Following stimulation, the cells were washed once with 100 μL/well and lysed for 30 minutes at room temperature with 30 μL/well lysis buffer provided with the kit. The lysed cells were diluted 1:2 with assay buffer after which 10 μL/well was pipetted to a white 384-well OptiPlate (PerkinElmer, Waltham, Mass., USA). Next, 10 μL of a detection solution consisting of 2.5% IP1-d2 conjugate and 2.5% anti-IP1 antibody diluted in assay buffer was added to each well. Fluorophore emissions were measured after the plate was stored in the dark for 1 h. The 615/665 nm emission ratios measured upon excitation at 340 nm were converted to IP1 concentrations with an IP1 standard curve according to the manufacturer's instructions.

[1] = three independent experiments in triplicate

Max. response (fold over basal ± S.E.M.), rat ortholog | EC50 (three independent experiments in triplicate, read-out: Potency (pEC50 ± S.E.M.), rat ortholog (converted)) | Potency (pEC50 ± S.E.M.), rat ortholog [1] | Molecule
3.43 ± 0.76 fold over basal | 257 nM | – | COc1cccc([C@@H](C)NCCCc2ccccc2Cl)c1 [NPS R-568, reference compound]
3.03 ± 0.63 fold over basal | – | 7.09 ± 0.09 | B1
3.01 ± 0.51 fold over basal | – | 6.46 ± 0.07 | B2
1.28 ± 0.12 fold over basal | – | – | B3
2.89 ± 0.13 fold over basal | – | 6.29 ± 0.02 | B4
2.90 ± 0.23 fold over basal | – | 6.24 ± 0.11 | B5
2.88 ± 0.13 fold over basal | – | 6.31 ± 0.07 | B6
3.10 ± 0.12 fold over basal | – | 6.78 ± 0.03 | B7
3.07 ± 0.39 fold over basal | – | 6.00 ± 0.28 | B8
